According to patent publication US20150132779A1:

Target: M1-linked polyubiquitin chains (UniProt P0CG48)
Assay: cell-based or functional assay

**Q.** With “trypsin-resistant tandem ubiquitin binding entity (TR-TUBE) (designed binder)” as the substance, how does the Ub-ProT assay: length of chain protected from trypsinization (ubiquitin molecules) read?
**A.** < 16
